Tests used:
[1] = target: IgG2, IgG3 and IgG4; experiment: method not stated (data not shown)
[2] = target: Fab with lambda light chain (Cλ); experiment: ELISA; reference is the Fab with kappa light chain
[3] = target: 4D5 Fab scaffold possessing a human IgG1 CH1 and a Kappa light chain; experiment: SPR
[4] = target: 4D5 Fab scaffold possessing a human IgG1 CH1 and a Kappa light chain; experiment: fluorescence polarization with Alexa-Fluor labeled Protein-G, pH varied
[5] = target: 4D5 Fab scaffold possessing a human IgG1 CH1 and a Kappa light chain; experiment: equilibrium SPR
[6] = target: FabHS (a human 4D5 scaffold with residues PEELRTNK replacing light chain positions 122-129); experiment: protein ELISA

fold decrease in affinity relative to human IgG1 [1] [fold]	EC50 ratio, Cλ Fab over CK Fab [2] [fold]	fold higher affinity than wild-type Protein-G [3] [fold]	fold decrease in affinity from pH 7.5 to pH 4 [4] [fold]	fold loss of affinity between pH 5.5 and pH 4.0 [4] [fold]	Kd [5] [nM]	IC50 [6] [nM]	Binder
20 to 50	> 5000	100	1000	300	25		Protein-G-A1 (designed binder) MKGETTTEAVDAATAEKVFKQYANDNGVDGEWTYDDATKTFTVTEKPEVIDASELTPAVTTYKLVINGRTLSGYTTTTAVDAATAEKVFKQYAYVHEVDGEWTYDDATKTFTVTEKPEVIDASELTPAVTTYKLVINGRTLSGETTTKAVDAETAEKAFKQYANDNGVDGVWTYDDATKTFTVTE
						100	Protein-G-HS C7 (designed binder) MKGETTTEAVDAATAEKVFKQYANDNGVDGEWTYDDATKTFTVTEKPEVIDASELTPAVTTYKLVINGKTLKGETTTEAVDAATAEKVFKQYANDNGVDGEWTYDDATKTFTVTEKPEVIDASELTPAVTTYKLVINGRTLSGETTTKAVDAETAEKAFKQYAYGAVVDGVWTYDDATKTFTVTE
						8	Protein-G-HS C6 (designed binder) MKGETTTEAVDAATAEKVFKQYANDNGVDGEWTYDDATKTFTVTEKPEVIDASELTPAVTTYKLVINGKTLKGETTTEAVDAATAEKVFKQYANDNGVDGEWTYDDATKTFTVTEKPEVIDASELTPAVTTYKLVINGRTLSGETTTKAVDAETAEKAFKQYSRPHVVDGVWTYDDATKTFTVTE
